According to the RNAGym collection of RNA variant scans (doi:10.1073/pnas.2313332121):
Fewer inactive variants are shown than the library holds.

B1: TPR 5TU (parent)
chain: GGAUCUUCUCGAUCUAACAAAAAAGACAAAUCUGCCACAAAGCUUGAGAGCAUCUUCGGAUGCAGAGGCGGCAGCCUUCGGUGGCGCGAUAGCGCCAACGUUCUCAACUAUGACACGCAAAACGCGUGCUCCGUUGAAUGGAGUUUAUCAUG

Variants of: B1
Experiment: polymerase ribozyme fitness, log enrichment relative to wild type (log ratio); higher = more active; in vitro selection for triplet polymerase activity
Summary of the method: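 Each subunit of a heterodimeric triplet polymerase ribozyme was represented by a PCR-built, transcribed mutant library that underwent triplicate single-round in vitro selection with frozen incubation at −7 °C. Extended constructs were recovered by gel excision, streptavidin-bead capture and RT-PCR, and Illumina sequencing of input and output libraries kept genotypes with ≥10 input reads and ≥1 read per output. Fitness is the logarithm of genotype enrichment relative to wild-type enrichment, from inverse-variance-weighted replicate averages, with a logarithm base of 2.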

Variant	polymerase ribozyme fitness (log ratio)
GGAUCUUCUCGAUCUAACAAAAAAGACAAAUCUGCCACAAAGCUUGAGAGCAUCUUCGGAUGCAGAGGCGGCAGCUUUCGGUGGCGCGAUAGCGCCAACGUUCUCAACUAUGACACGCAAAACGCGUGCUCCGUUGGAUGGAGUUUAUCAUG [C76U A137G]	-0.882
GGAUCUUCUCGAUCUAACAAAAAAGACAAAUCUGCCACAAAGCUUGAGAGCAUCUUCGGAUGCAGAGGCGGCAGCGUUCGGUGGCGCGAUAGCGCCAACGUUCUCGACUAUGACACGCAAAACGCGUGCUCCAUUGAAUGGAGUUUAUCAUG [C76G A106G G133A]	≤ -4.2
GGAUCUUCUCGAUCUAACAAAAAAGACAAAUCUGCCACAAAGCUUGAGAGCAUCUUCGGAUGCAGAGGCGGCAGCAUUCGGUGGCGUGAUAACGCCAACGUUCUCAACUAUGACACGCAAAACGCGUGCUCCGUUGAAUGGAGUUUAUCAUG [C76A C87U G92A]	-2.16
GGAUCUUCUCGAUCUAACAAAAAAGACAAAUCUGCCACAAAGCUUGAGAGCAUCUUCGGAUGCAGAGGCGGCAGCAUUCGGUGGCGUGAUACCGCCAACGUUCUCAACUAUGACACGCAAAACGCGUGCUCCGUUGAAUGGAGUUUAUCAUG [C76A C87U G92C]	-2.48
GGAUCUUCUCGAUCUAACAAAAAAGACAAAUCUGCCACAAAGCUUGAGAGCAUCUUCGGAUGCAGAGGCGGCAGCAUUCGGUGGCGCGACAGCGCCAACGUUCUCAACUAUGACACGCAAAACGCGUGCUCCGUUGAAUGGAGUUGAUCAUG [C76A U90C U146G]	≤ -4.2
GGAUCUUCUCGAUCUAACAAAAAAGACAAAUCUGCCACAAAGCUUGAGAGCAUCUUCGGAUGCAGAGGCGGCAGCUUUCGGUGGCGAGAUGGCGCCAACGUUCUCAUCUAUGACACGCAAAACGCAUGCUCCGUUGAAUGGAGUAUAUCAUG [C76U C87A A91G A107U G126A U145A]	≤ -4.2
GGAUCUUCUCGAUCUAACAAAAAAGACAAAUCUGCCACAAAGCUUGAGAGCAUCUUCGGAUGCAGAGGCGGCAGCUUUCGGUGGCGUGAUAGCGCCAACGUUCUCAACUAUGACAAGCAAAUCGCGUGCUCCGUUGAAUGGAGUUGAUCAUG [C76U C87U C116A A122U U146G]	-3.7
GGAUCUUCUCGAUCUAACAAAAAAGACAAAUCUGCCACAAAGCUUGAGAGCAUCUUCGGAUGCAGAGGCGGCAGCAUUCGGUGGCGCGAUAGCGCCAACGUUCUCAACUAUGACACGCAAAACGCGUGCUCCGUUAAAUGGAGUUUAUCAUG [C76A G136A]	0.971
GGAUCUUCUCGAUCUAACAAAAAAGACAAAUCUGCCACAAAGCUUGAGAGCAUCUUCGGAUGCAGAGGCGGCAGCUUUCGGUGGGGCGAUAGCGCCAACGUUCUCAACUAUGACACGCAAAACGCGUGCUCCGUUGAAUGGAGUUUAUCAUG [C76U C85G]	-0.632
GGAUCUUCUCGAUCUAACAAAAAAGACAAAUCUGCCACAAAGCUUGAGAGCAUCUUCGGAUGCAGAGGCGGCAGCUUUCGGUGGAGCGAUAGCGCCAACGUUCUCAACUAUGACACGCAAAACGCGUGCUCCGUUGAAUGGAGUUUAUCAUG [C76U C85A]	-2.44
GGAUCUUCUCGAUCUAACAAAAAAGACAAAUCUGCCACAAAGCUUGAGAGCAUCUUCGGAUGCAGAGGCGGCAGCAUUCGGUGGCGCGAUAGCGCUAACGUUCUCAACUAUGACACGCAACACGCGUGCUCCGUUGAAUGGAGUUUAUCAUG [C76A C96U A121C]	0.584
GGAUCUUCUCGAUCUAACAAAAAAGACAAAUCUGCCACAAAGCUUGAGAGCAUCUUCGGAUGCAGAGGCGGCAGCGUUCGGUGGCGCGAUAGCGCAAACGUUCUCAACUAUGACACGCAAAACGCGUGCUCCGUUGAAUAGAGUUUAUCAUG [C76G C96A G140A]	≤ -4.2
GGAUCUUCUCGAUCUAACAAAAAAGACAAAUCUGCCACAAAGCUUGAGAGCAUCUUCGGAUGCAGAGGCGGCAGCAUUCGGUGGCGCGAUAGCGCCAACGUUCUCAACUAUGACACGCAAAACGCGUGCUCCGUUGAAUCGAGUUUAUCAUG [C76A G140C]	-3.36
GGAUCUUCUCGAUCUAACAAAAAAGACAAAUCUGCCACAAAGCUUGAGAGCAUCUUCGGAUGCAGAGGCGGCAGCGUUCGGUGGGGCGAUAACGCCAACGUUCUCAACUAUGACACGCACAACGCGUGUUCCGUUGAAUGGAGUUUAUCAUG [C76G C85G G92A A120C C129U]	≤ -4.2
GGAUCUUCUCGAUCUAACAAAAAAGACAAAUCUGCCACAAAGCUUGAGAGCAUCUUCGGAUGCAGAGGCGGCAGCAUUCGGUGGCGUGAUAGCGCCAACGUUCUCAACUAUGACACGCAAAACGCGUGCUCCGUUGAAUGGAGUUUAUCAUG [C76A C87U]	-2.16
GGAUCUUCUCGAUCUAACAAAAAAGACAAAUCUGCCACAAAGCUUGAGAGCAUCUUCGGAUGCAGAGGCGGCAGCAUUCGGGGGCGCGAUAGCGCCAACGUUCUCAACUAUGACACGCAAAACGCGUGCUCCGUUGAAUGGAGUUAAUCAUG [C76A U82G U146A]	-0.356
GGAUCUUCUCGAUCUAACAAAAAAGACAAAUCUGCCACAAAGCUUGAGAGCAUCUUCGGAUGCAGAGGCGGCAGCGUUCGGUGGCGCGAUAGUGCCAACGUUCUCAACUAUGACACGCAAAACGCGUGCUCCGUUGAAUGGAGUUUAUCAUG [C76G C93U]	≤ -4.2
GGAUCUUCUCGAUCUAACAAAAAAGACAAAUCUGCCACAAAGCUUGAGAGCAUCUUCGGAUGCAGAGGCGGCAGCUUUUGGUUGCGCGAUAGCACCAACGUUCUUAACUAUGACACGGAAAACGCGUGCUCGGUUAAAUGGAGUUUAUCAUG [C76U C79U G83U G94A C105U C118G C132G G136A]	≤ -4.2
GGAUCUUCUCGAUCUAACAAAAAAGACAAAUCUGCCACAAAGCUUGAGAGCAUCUUCGGAUGCAGAGGCGGCAGCUUUAGGUGGCGCGAUAGUGCCAACGUUCUCAACUAUGACAAGAAAAACGCGUGCUCCGUUGAAUGGAGUUUAUCAUG [C76U C79A C93U C116A C118A]	≤ -4.2
